Experimental data from patent US9248180B2, “IC31 nanoparticles” (Valneva Austria GmbH, priority 2010, dated 2016).
Several values for one entry are separate records, joined by “and”; a condition that tells them apart may be missing. Equal values may be shown once.

How the values were obtained:
[1] = Viscosity and sterile-filterability of KLK in 10 mM Tris as a function of pH; assay type: physicochemical; conditions: for Viscosity (cP): 2000 nmol/mL KLK in 10 mM Tris, no salt; for Sterile-filterable: 0.2 μm filter
Method: For sterile filtration, appropriate viscosity of the mixture to be filtered is also critical. Viscosity can be measured e.g. on a Brookfield DV-E rotation viscometer at 20° C. using an LV61 spindle and can be reported as centipoise (cP=milliPascal seconds). Preferred compositions have a viscosity of less than 15 cP. Even more preferred compositions have viscosities of less than 12 cP or even less than 10 cP.
One of the key factors for sterile-filterable compositions is viscosity. At a viscosity >15 cP, sterile filtration through a 0.2 μm filter is no longer possible. The final viscosity of the nanoparticulate IC31® composition correlates to the final pH of the composition due to the fact that the viscosity of KLK in solution increases drastically with increasing pH, resulting in non-sterile-filterable formulations at a final pH of around 7.2.

[2] = test system: CD8+ cells from the lungs; test: Cytometric Bead Array of cytokines produced by CD8+ lung cells of vaccinated mice; assay type: in vivo, C57BL/6 mice; conditions: immunizations d0, d13, d28
[3] = CD8+ lung cells stimulated with Medium
[4] = CD8+ lung cells stimulated with SVN19-28
[5] = CD8+ lung cells stimulated with TRP-2180-188

Sequence: KLKLLLLLKLK [peptide component of IC31®]
- Viscosity (cP) ([1]; pH 6.24): 9.69 cP
- Sterile-filterable ([1]; pH 6.24): Yes
- Viscosity (cP) ([1]; pH 6.4): 8.06 cP
- Sterile-filterable ([1]; pH 6.4): Yes
- Viscosity (cP) ([1]; pH 6.6): 10.00 cP
- Sterile-filterable ([1]; pH 6.6): Yes
- Viscosity (cP) ([1]; pH 6.73): 10.00 cP
- Sterile-filterable ([1]; pH 6.73): Yes
- Viscosity (cP) ([1]; pH 6.88): 10.94 cP
- Sterile-filterable ([1]; pH 6.88): Yes
- Viscosity (cP) ([1]; pH 7.03): 11.25 cP
- Sterile-filterable ([1]; pH 7.03): Yes
- Viscosity (cP) ([1]; pH 7.22): 15.00 cP
- Sterile-filterable ([1]; pH 7.22): Yes/No*
- Viscosity (cP) ([1]; pH 7.39): 16.88 cP
- Sterile-filterable ([1]; pH 7.39): No
- Viscosity (cP) ([1]; pH 7.7): 16.88 cP
- Sterile-filterable ([1]; pH 7.7): No
- Viscosity (cP) ([1]; pH 7.96): 25.00 cP
- Sterile-filterable ([1]; pH 7.96): No
- Viscosity (cP) ([1]; pH 8.4): 21.88 cP and 24.38 cP
- Sterile-filterable ([1]; pH 8.4): No
- Viscosity (cP) ([1]; pH 8.8): 87.50 cP
- Sterile-filterable ([1]; pH 8.8): No

Sequence: SVYDFFVWL [TRP-2180-188]
- GM-CSF [2, 3]: 46 pg/mL
- IFN-γ [2, 3]: 41 pg/mL
- IL-6 [2, 3]: 109 pg/mL
- TNF-α [2, 3]: 14 pg/mL
- GM-CSF [2, 4]: 57 pg/mL
- IFN-γ [2, 4]: 199 pg/mL
- IL-2 [2, 4]: 43 pg/mL
- IL-6 [2, 4]: 115 pg/mL
- TNF-α ([2]; CD8+ lung cells stimulated with SVN19-28de): 9 pg/mL
- GM-CSF [2, 5]: 48 pg/mL
- IFN-γ [2, 5]: 301 pg/mL
- IL-2 [2, 5]: 33 pg/mL
- IL-6 [2, 5]: 185 pg/mL
- IL-10 [2, 5]: 56 pg/mL
- TNF-α [2, 5]: 24 pg/mL
